Experimental data reported in patent publication US20240025978A1 (BIOVERATIV USA, published 2024).

Target: T1, activated human complement C1s (Homo sapiens, UniProt P09871 16-688)
T1 sequence: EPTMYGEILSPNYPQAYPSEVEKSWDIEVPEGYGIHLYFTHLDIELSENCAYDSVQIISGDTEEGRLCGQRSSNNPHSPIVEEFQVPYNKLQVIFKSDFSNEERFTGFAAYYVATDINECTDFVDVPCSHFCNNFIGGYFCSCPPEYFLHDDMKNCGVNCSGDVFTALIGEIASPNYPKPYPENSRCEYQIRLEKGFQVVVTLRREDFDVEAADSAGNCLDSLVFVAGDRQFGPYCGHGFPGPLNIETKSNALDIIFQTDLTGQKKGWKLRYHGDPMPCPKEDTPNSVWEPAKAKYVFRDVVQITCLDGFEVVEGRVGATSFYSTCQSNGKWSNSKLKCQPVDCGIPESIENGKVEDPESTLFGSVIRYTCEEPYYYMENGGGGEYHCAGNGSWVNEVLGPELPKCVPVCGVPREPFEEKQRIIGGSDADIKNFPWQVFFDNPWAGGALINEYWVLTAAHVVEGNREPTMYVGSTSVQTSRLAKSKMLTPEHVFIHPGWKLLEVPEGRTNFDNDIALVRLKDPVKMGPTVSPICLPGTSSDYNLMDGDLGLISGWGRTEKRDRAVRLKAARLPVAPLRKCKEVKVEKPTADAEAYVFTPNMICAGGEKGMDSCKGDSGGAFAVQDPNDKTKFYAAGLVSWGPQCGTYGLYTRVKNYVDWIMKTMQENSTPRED
Experiment: cell-based or functional assay

B1: SAR445088 (antibody, human IgG4 S228P, kappa, V domains shown)
VH: QVQLVQSGAEVKKPGASVKLSCTASGFNIKDDYIHWVKQAPGQGLEWIGRIDPADGHTKYAPKFQVKVTITADTSTSTAYLELSSLRSEDTAVYYCARYGYGREVFDYWGQGTTVTVSS
VL: DIVLTQSPDSLAVSLGERATISCKASQSVDYDGDSYMNWYQQKPGQPPKILIYDASNLESGIPARFSGSGSGTDFTLTISSLEPEDFAIYYCQQSNEDPWTFGGGTKVEIKR
CH50 (50% hemolytic complement activity, liposome-based assay), population PK/PD model, typical IC50: 16.6 µg/mL
percent CP (Wieslab classical pathway assay), population PK/PD model, typical IC50: 96.4 µg/mL
